Experimental data reported in patent US9340769B2 (priority 2008, dated 2016).

Legend:
stratum corneum barrier = type: in vivo, ICR mice
P. acnes [1] = assay: Effect of desipramine on P. acnes-induced inflammation in vivo (ear thickness); parameters: species or system ICR mice; conditions: 20 mg/kg i.p. 30 min before challenge; 24 hr
Protocol: (A) Amount of soluble ASMase in mouse ear increased 24 hr after bacteria challenge. Ears of ICR mice were intradermally injected with of P. acnes in PBS (1×10^7 CFU/20 μl; left ear) or PBS (20 μl; right ear), and excised after 24 hr. Ear tissue was obtained with a 8 mm biopsy and homogenized in PBS. The supernatant (1 ug of total protein) was subjected to Western blotting. ASMase (upper panels) and GAPDH (lower panels) were detected with goat anti-ASMase IgG followed by anti-GAPDH IgG (left panels). Normal goat or mouse IgG was used as a negative control for the detection (right panels). (B) P. acnes challenge into mouse ear attracted CD11b+ macrophages which highly expressed ASMase. Frozen sections of mouse ear obtained 24 after bacteria challenge were stained with biotinylated anti-mouse CD11b IgG, a conventional macrophage marker, and TRITC-streptavidin conjugate, followed by Goat anti-ASMase IgG and anti-goat IgG-TRITC conjugate. The nuclei were stained with DAPI (blue). Bar=200 μm. (C) Transmission electron microscopy (10,000× magnification) was used to visualize colonized P. acnes and ruptured cell membrane in mouse ears injected with P. acnes or PBS. PA, P. acnes; CM, cell membrane; NC, nucleus. Bar=1 μm. (D) Systemic pre-treatment of ICR mice with selective ASMase inhibitor relieved P. acnes-induced inflammation. […]

[2] = system: HaCaT cells co-cultured with P. acnes; assay: P. acnes-mediated cell death: neutralization assay / ASMase inhibitor, HaCaT; conditions: desipramine 10 μM, 14 hr; 43.4% with PBS vehicle
sialidase = assay: Immunogenicity of sialidase vaccines (Western blot, antigen microarray); conditions: recombinant protein with Freund (in)complete adjuvants; three weeks after immunization
P. acnes [3] = assay: P. acnes-induced ear thickness/redness in immunized mice (subcutaneous ear challenge)
[4] = system: sialic acids on the surface of human SZ95 sebocytes; assay: Sialidase enzyme activity: removal of surface sialic acids from sebocytes (MAA lectin I / streptavidin-FITC flow cytometry); conditions: compared among three cloned P. acnes sialidases
human SZ95 sebocytes = assay: Susceptibility of sialidase-treated sebocytes to P. acnes (cell death by trypan blue, adherence by CFU); conditions: pre-treatment 10 μg/ml for 2 h; GFP no effect

## CCCCCCCCCCCCCCO[C@@H]1O[C@H](CO)[C@@H](O[C@H]2O[C@H](CO)[C@@H](O)[C@H](O)[C@H]2O)[C@H](O)[C@H]1O [TDM, tetradecyl-β-D-maltoside]
Stratum corneum barrier; 0.125% in sterile water, 15 min
  effect on stratum corneum barrier: slightly disrupts
Stratum corneum barrier; mouse, in vivo
  effect on epicutaneous immunization of E. coli based-tetanus toxin C fragment vaccine: greatly enhances

## CNCCCN1c2ccccc2CCc2ccccc21 [desipramine]
P. acnes [1]
  P. acnes-induced ear swelling: significantly relieved
[2]
  P. acnes-induced cell death, reduced by (HaCaT): 21.9%

B1: sialidase: recombinant P. acnes cell wall-anchored sialidase (gi|50843035) 6×NH fusion protein; enzyme and, with Freund adjuvants, vaccine (protein)
chain: MTLTTKLSALAIAGIMAVIGAPMVTQSAMASGRAPAPDAATTQPKLVTGDITSTDQSGTHLFFGKNIVRNAKGAIMKVDRTWPAAVPAPLPDVRADSSTRMLLGPVVDLAVNEHPAGVFYRIPALATASNGDLLASYDLRPGSAADAPNPNSIVQRRSRDNGRTRGPQTVIHAGTLGRRKVGYSDPSYLVDPATGHILNFHVKSYDRGFATSEVGTDPDDRHVLHAEVSTSTDNGHTWTYRDITREITPDPTTRTRFVASGQGIALLHGPHAGGLIAQMTVRNSVGQQAQSIYSDDHGITWHAGNPVGRMMDENKVVELSDGTLMLNSRDAARSGRRKVAYSHDGGLTWGPVKLVDDLIDPTNNAQIIRAYPNARAGSAKARILLFTNARNATERVNGTLSVSCDDGRTWVSHQTYMPGEVGYTTAAVQSDGALGVLWERDGIRYSTIPMGWLNSVCPVAPSGRPTSGEPTSGTSLPLTATPSGSLHGGASSRPTSLPHTGD
modifications: left off: small tags and cut ends
sialidase
  anti-sialidase antibody in serum (Western blot): strong band
P. acnes [3]; recombinant sialidase with Freund (in)complete adjuvants vs GFP-immunized, P. acnes 10^7 CFU s.c.
  elevation of ear thickness, reduced by: more than 50%
P. acnes [3]; sialidase-immunized, GFP-immunized 7 days
  recovery of ear redness, days after P. acnes challenge: 3 days
[4]
  enzyme activity in removing the sialic acids from the surface of human SZ95 sebocytes: strongest enzyme activity
Human SZ95 sebocytes
  adherence of P. acnes into sebocytes: considerably increased
